Measured values: patent US20220380791A1 (ELEVA, published 2022)

Target: M6P receptor (M6PR) (human)
Experiment: cell-based or functional assay

- intracellular α-gal A activity of Fabry patient fibroblasts after 18 hours incubation with 10 µg/ml enzyme (fold of untreated cells): 116 fold
B1: Agalsidase alfa (Shire, Replagal) (enzyme, UniProt P06280 32-429, looked up)
chain: LDNGLARTPTMGWLHWERFMCNLDCQEEPDSCISEKLFMEMAELMVSEGWKDAGYEYLCIDDCWMAPQRDSEGRLQADPQRFPHGIRQLANYVHSKGLKLGIYADVGNKTCAGFPGSFGYYDIDAQTFADWGVDLLKFDGCYCDSLENLADGYKHMSLALNRTGRSIVYSCEWPLYMWPFQKPNYTEIRQYCNHWRNFADIDDSWKSIKSILDWTSFNQERIVDVAGPGGWNDPDMLVIGNFGLSWNQQVTQMALWAIMAAPLFMSNDLRHISPQAKALLQDKDVIAINQDPLGKQGYQLRQGDNFEVWERPLSGLAWAVAMINRQEIGGPRSYTIAVASLGKGVACNPACFITQLLPVKRKLGFYEWTSRLRSHINPTGTVLLQLENTMQMSLKDLL
modifications: heterogeneous N-glycans, about 24% phosphorylated (M6P) glycans
